Columns and labels:
[1] = target: wild-type H1/Cal09 HA ectodomain with the Foldon trimerization tag (influenza A virus A/California/04/2009 (H1N1) | T4); experiment: SEC
[2] = target: wild-type H1/Cal09 HA ectodomain with the Foldon trimerization tag (influenza A virus A/California/04/2009 (H1N1) | T4); experiment: cryo-EM 2D classification
[3] = target: wild-type H1/Mal07 HA ectodomain with the Foldon tag (influenza A virus A/Malaysia/1706215/2007 (H1N1) | T4); experiment: SEC
[4] = target: wild-type H9/HK98 HA ectodomain with the Foldon tag (influenza A virus A/swine/Hong Kong/2106/98 (H9N2) | T4); experiment: SEC
[5] = target: wild-type ectodomain of HA from /turkey/Ontario/6118/1968 (H8N4) (influenza A virus /turkey/Ontario/6118/1968 (H8N4)); experiment: SEC
[6] = target: wild-type ectodomain of HA from A/gull/Maryland/704/1977 (H13N6) (influenza A virus A/gull/Maryland/704/1977 (H13N6)); experiment: SEC
[7] = target: wild-type ectodomain of HA from A/swine/Hong Kong/2106/98 (H9N2) (influenza A virus A/swine/Hong Kong/2106/98 (H9N2)); experiment: SEC

Substance: wild-type H1/Cal09 HA ectodomain with the Foldon trimerization tag
- stoichiometry N [1]: 3
- stoichiometry N [2]: 3

Substance: wild-type H1/Mal07 HA ectodomain with the Foldon tag
- stoichiometry N [3]: 3

Substance: wild-type H9/HK98 HA ectodomain with the Foldon tag
- stoichiometry N [4]: 3

Substance: wild-type ectodomain of HA from /turkey/Ontario/6118/1968 (H8N4) (domain or fragment)
- stoichiometry N [5]: 3

Substance: wild-type ectodomain of HA from A/gull/Maryland/704/1977 (H13N6) (domain or fragment)
- stoichiometry N [6]: 3

Substance: wild-type ectodomain of HA from A/swine/Hong Kong/2106/98 (H9N2) (domain or fragment)
- stoichiometry N [7]: 3

— article doi:10.1101/2025.08.27.672506
